Publication PMC11405398

Target: spore coat protein GerQ (Bacillus amyloiquefaciens)
Assay: cryo-EM structure; native filaments extracted from B. amyloiquefaciens biofilm; helical reconstruction with C9 point group symmetry, rise 34.2 Å, twist −18.4°; 3.3 Å; partially unbundled filaments

stoichiometry N (subunits per ring): 9
Substance: spore coat protein GerQ (natural protein)
